According to patent US20200181283A1 (AGENCY FOR SCIENCE TECHNOLOGY AND RESEARCH, published 2020):

How the values were obtained:
purified human PRL-3 [1] = molecular target: T1, purified human PRL-3 (human, UniProt O75365 1-173, limits assumed); experiment: KinExA kinetic exclusion assay
T1 construct: Antigen of the KinExA analysis; also called PTP4A3; PRL-3 antigen

purified human PRL-3 [2] = molecular target: T1, purified human PRL-3; experiment: KinExA kinetic exclusion assay, purified antibody and purified human PRL-3

T1 sequence (O75365 whole entry): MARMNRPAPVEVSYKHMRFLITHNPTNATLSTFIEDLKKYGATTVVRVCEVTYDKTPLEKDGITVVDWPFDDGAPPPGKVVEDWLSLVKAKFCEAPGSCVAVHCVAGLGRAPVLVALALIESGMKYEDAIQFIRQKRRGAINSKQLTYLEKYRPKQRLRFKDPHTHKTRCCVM

B1: PRL3-zumab (antibody, V domains shown)
VH: QVQLVQSGAEVKKPGASVKVSCKASGYTFTNYYMHWVRQAPGQLEWMGWIYPGNVNTYYNEKFRGRVTITADTSASTAYMLSSLRSEDTAVYYCASEEKNYPWFAYWGQGTLVTS
VL: DTQLTQSPSSLSASVGDRVTICKASQSVEDDGENYMNWYQQKPGSPKLLIYAASNLESGIPARFSGSGSGTDFTLTISSLPEDFATYYCQQSNEDPFTFGSGTKLEIK
Purified human PRL-3 [1]
  koff: 6.68e-05 s⁻¹
  kon: 1.06e+07 M⁻¹ s⁻¹
Purified human PRL-3 [2]
  Kd: 6.29 pM
